What was measured:
Assay in all cases: holdup assay
Design in all cases: key: below the threshold = too weak to quantify, mostly under pKd 3.1 to 4
Conditions in all cases: plain residues with an end cap or a label only (N-terminal biotin on a linker: ado-ado)
[1] = biological target: T1, HTRA4, P83105
T1 sequence (P83105 378-476, limits assumed, looked up): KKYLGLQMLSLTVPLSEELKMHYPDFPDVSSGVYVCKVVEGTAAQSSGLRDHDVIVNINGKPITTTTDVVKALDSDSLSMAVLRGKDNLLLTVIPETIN

[2] = biological target: T2, MPP6, Q9NZW5
T2 sequence (Q9NZW5 125-219, limits assumed, looked up): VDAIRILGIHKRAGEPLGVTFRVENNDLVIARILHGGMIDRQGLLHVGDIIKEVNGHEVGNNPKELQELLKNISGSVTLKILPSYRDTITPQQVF

[3] = biological target: GRASP, Q7Z6J2
Chain of GRASP, Q7Z6J2 (Q7Z6J2 96-193): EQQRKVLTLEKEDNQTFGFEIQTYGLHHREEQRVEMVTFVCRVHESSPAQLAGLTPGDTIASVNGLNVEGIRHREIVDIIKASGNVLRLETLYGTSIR

[4] = biological target: T3, GRIP1_7, Q9Y3R0
T3 sequence (Q9Y3R0 999-1096, limits assumed, looked up): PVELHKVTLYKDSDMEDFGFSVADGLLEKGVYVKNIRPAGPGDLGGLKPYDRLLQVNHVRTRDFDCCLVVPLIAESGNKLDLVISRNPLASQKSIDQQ

[5] = biological target: NOS1, P29475
Chain of NOS1, P29475 (P29475 9-101): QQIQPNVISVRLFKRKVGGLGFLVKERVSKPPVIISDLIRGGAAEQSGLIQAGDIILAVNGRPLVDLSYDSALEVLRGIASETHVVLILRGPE

[6] = biological target: T4, TJP3_3, O95049
T4 sequence (O95049 375-456, limits assumed, looked up): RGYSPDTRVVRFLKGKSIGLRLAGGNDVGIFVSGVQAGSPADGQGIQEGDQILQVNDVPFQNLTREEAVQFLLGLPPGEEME

[7] = biological target: Inadl_9, Q8NI35
Chain of Inadl_9, Q8NI35 (Q8NI35 1530-1615): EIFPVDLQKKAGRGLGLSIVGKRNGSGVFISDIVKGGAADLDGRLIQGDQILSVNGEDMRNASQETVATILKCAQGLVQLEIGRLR

[8] = biological target: T5, DLG3_3, Q92796
T5 sequence (Q92796 374-475, limits assumed, looked up): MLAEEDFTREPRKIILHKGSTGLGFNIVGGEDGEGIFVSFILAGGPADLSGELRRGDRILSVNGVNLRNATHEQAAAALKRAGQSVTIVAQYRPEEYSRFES

[9] = biological target: Inadl_2, Q8NI35
Chain of Inadl_2, Q8NI35 (Q8NI35 238-335): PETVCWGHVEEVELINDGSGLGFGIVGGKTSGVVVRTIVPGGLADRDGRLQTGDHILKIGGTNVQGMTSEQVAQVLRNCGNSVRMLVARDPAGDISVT

[10] = biological target: NHERF4_1, Q86UT5-2
Chain of NHERF4_1, Q86UT5-2 (Q86UT5 other isoform, or with tags, fused parts or gaps): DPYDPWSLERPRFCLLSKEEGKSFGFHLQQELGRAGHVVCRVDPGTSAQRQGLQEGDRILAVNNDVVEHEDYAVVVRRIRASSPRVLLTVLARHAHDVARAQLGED

[11] = biological target: T6, RAPGEF6, Q8TEU7
T6 sequence (Q8TEU7 525-625, limits assumed, looked up): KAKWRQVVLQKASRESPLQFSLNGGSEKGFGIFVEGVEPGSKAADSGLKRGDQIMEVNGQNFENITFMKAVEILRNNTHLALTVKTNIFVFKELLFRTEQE

[12] = biological target: NHERF2_2, Q15599
Chain of NHERF2_2, Q15599 (Q15599 142-238): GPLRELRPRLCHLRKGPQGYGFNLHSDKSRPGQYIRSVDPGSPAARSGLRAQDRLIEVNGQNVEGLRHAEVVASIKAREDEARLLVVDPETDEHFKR

[13] = biological target: PICK1, Q9NRD5
Chain of PICK1, Q9NRD5 (Q9NRD5 17-115): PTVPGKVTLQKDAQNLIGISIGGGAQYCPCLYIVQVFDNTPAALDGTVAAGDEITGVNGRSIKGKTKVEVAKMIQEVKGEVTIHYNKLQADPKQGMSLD

[14] = biological target: NHERF4_4, Q86UT5
Chain of NHERF4_4, Q86UT5 (Q86UT5 464-550): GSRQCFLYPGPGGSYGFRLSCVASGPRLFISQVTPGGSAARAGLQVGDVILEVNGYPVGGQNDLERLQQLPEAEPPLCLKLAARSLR

[15] = biological target: TJP2_1, Q9UDY2
Chain of TJP2_1, Q9UDY2 (Q9UDY2 24-128): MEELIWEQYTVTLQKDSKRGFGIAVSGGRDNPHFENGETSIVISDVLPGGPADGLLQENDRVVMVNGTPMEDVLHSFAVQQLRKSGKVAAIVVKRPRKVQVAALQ

[16] = biological target: T7, SNTB1, Q13884
T7 sequence (Q13884 107-205, limits assumed, looked up): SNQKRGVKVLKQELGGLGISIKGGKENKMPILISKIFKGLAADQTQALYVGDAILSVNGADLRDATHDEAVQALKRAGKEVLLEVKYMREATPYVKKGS

[17] = biological target: T8, ARHGAP21, Q5T5U3
T8 sequence (Q5T5U3 45-169, limits assumed, looked up): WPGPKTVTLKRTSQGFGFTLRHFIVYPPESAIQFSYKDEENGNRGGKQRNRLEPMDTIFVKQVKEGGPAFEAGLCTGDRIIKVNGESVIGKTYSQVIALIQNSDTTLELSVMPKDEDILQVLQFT

[18] = biological target: T9, APBA1_2, Q02410
T9 sequence (Q02410 742-832, limits assumed, looked up): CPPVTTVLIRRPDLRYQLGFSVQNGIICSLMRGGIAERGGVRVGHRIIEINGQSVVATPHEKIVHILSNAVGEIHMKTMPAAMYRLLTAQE

[19] = biological target: T10, LIN7A, O14910
T10 sequence (O14910 103-200, limits assumed, looked up): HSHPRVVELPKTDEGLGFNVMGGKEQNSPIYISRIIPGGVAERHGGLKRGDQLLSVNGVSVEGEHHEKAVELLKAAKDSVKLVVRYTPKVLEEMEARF

[20] = biological target: GRID2IP_1, A4D2P6
Chain of GRID2IP_1, A4D2P6 (A4D2P6 1-87): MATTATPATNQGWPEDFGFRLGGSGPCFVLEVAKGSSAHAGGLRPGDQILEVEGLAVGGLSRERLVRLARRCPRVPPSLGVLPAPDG

[21] = biological target: T11, APBA1_1, Q02410
T11 sequence (Q02410 651-752, limits assumed, looked up): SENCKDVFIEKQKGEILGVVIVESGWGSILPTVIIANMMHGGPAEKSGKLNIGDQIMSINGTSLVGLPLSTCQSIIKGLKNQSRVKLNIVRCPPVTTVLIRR

[22] = biological target: T12, LNX2_2, Q8N448
T12 sequence (Q8N448 334-432, limits assumed, looked up): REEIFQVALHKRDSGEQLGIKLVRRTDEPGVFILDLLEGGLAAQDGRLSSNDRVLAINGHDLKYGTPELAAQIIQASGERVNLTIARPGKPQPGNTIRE

[23] = biological target: MAGI1_1, Q96QZ7
Chain of MAGI1_1, Q96QZ7 (Q96QZ7 1-106): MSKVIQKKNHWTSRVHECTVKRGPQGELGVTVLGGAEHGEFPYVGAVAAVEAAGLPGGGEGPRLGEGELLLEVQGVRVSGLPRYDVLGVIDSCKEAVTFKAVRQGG

[24] = biological target: DLG4_1, P78352
Chain of DLG4_1, P78352 (P78352 62-152): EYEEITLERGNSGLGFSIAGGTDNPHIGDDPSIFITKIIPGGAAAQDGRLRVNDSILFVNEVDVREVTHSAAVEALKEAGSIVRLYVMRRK

[25] = biological target: TJP1_3, Q07157
Chain of TJP1_3, Q07157 (Q07157 416-512): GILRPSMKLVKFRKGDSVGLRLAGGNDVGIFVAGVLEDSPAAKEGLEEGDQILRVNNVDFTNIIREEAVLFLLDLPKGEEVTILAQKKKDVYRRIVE

Binder | pKd [1] | pKd [2] | pKd [3] | pKd [4] | pKd [5] | pKd [6] | pKd [7] | pKd [8] | pKd [9] | pKd [10] | pKd [11] | pKd [12] | pKd [13] | pKd [14] | pKd [15] | pKd [16] | pKd [17] | pKd [18] | pKd [19] | pKd [20] | further results
DQPLEKSTKL [AKAP10, O43572] | below the threshold | below the threshold | 4.06 | below the threshold | below the threshold | below the threshold | below the threshold | below the threshold | below the threshold | 4.28 | below the threshold | 5.02 | below the threshold | below the threshold | below the threshold | 3.99 | below the threshold | below the threshold | below the threshold | below the threshold | pKd [21]: below the threshold; pKd [22]: below the threshold; pKd [23]: below the threshold; pKd [24]: below the threshold; pKd [25]: below the threshold
GQSVDLVFPV [AKIP1, Q9NQ31] | below the threshold | below the threshold | 3.48 | below the threshold | 3.93 | below the threshold | 3.5 | below the threshold | 3.51 | below the threshold | below the threshold | below the threshold | below the threshold | below the threshold | below the threshold | below the threshold | 4.16 | 3.85 | below the threshold | below the threshold | pKd [21]: below the threshold; pKd [22]: 3.87; pKd [23]: below the threshold; pKd [24]: 3.6; pKd [25]: below the threshold
QFTLRHWLKV [SLC6A3, Q01959] | 4.1 | below the threshold | 3.8 | below the threshold | below the threshold | below the threshold | below the threshold | below the threshold | below the threshold | below the threshold | below the threshold | below the threshold | 3.69 | 3.65 | below the threshold | below the threshold | 4.09 | below the threshold | below the threshold | below the threshold | pKd [21]: below the threshold; pKd [22]: 4.84; pKd [23]: below the threshold; pKd [24]: below the threshold; pKd [25]: below the threshold

From article PMC9482650, “Quantitative fragmentomics allow affinity mapping of interactomes” (Nature Communications, 2022)
